Laboratory results taken from article PMC7782793, “Hydroxamic acid-modified peptide microarrays for profiling isozyme-selective interactions and inhibition of histone deacetylases” (Nature Communications, 2021).
Starred links: 1 amine or outer side, 2 acyl side, 3 side chain; linkers in the order of their positions; H or OH if unused. Non-standard residues stand in square brackets, D forms with d. Primed or numbered codes have the meaning given here. No end group written: not given here. Asuha″ = L-2-amino-8-(hydroxyamino)-8-oxooctanoic acid, O=C(CCCCC[C@H](N[*:1])C(=O)[*:2])NO

Molecular target: T1, HDAC6 (histone deacetylase 6) (human, UniProt Q9UBN7 1-1215)
T1 construct: HDAC6, human, full length; source: bought: BPS Bioscience, cat. #50056
T1 sequence (looked up): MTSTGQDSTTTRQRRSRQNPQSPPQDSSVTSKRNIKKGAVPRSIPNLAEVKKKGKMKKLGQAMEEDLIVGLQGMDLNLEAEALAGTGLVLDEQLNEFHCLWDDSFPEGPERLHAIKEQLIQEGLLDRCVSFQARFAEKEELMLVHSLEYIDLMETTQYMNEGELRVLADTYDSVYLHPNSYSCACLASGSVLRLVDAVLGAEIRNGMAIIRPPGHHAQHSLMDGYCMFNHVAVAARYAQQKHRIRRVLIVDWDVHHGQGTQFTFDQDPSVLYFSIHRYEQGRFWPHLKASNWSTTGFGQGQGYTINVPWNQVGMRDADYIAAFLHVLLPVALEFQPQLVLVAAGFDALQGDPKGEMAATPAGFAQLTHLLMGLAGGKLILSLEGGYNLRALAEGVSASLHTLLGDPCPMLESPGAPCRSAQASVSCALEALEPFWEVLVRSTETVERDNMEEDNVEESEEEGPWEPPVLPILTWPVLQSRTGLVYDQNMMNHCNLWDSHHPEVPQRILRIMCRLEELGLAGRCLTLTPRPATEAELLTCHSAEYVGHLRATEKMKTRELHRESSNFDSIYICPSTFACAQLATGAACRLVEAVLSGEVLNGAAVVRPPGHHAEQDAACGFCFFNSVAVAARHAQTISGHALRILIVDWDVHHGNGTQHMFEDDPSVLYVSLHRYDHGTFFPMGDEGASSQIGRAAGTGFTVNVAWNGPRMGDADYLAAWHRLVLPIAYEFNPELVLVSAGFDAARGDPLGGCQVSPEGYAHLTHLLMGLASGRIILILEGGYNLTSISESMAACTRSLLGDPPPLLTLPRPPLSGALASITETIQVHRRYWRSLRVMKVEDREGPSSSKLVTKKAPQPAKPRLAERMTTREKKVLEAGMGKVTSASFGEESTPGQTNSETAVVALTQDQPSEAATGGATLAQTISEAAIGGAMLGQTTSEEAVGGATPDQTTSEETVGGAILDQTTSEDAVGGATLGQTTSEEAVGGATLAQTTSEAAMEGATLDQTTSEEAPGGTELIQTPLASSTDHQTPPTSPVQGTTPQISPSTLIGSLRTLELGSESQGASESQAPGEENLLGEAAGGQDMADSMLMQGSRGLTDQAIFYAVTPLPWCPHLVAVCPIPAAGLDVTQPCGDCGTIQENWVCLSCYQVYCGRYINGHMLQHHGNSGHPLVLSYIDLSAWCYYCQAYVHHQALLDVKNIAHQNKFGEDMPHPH
Experiment: fluorogenic enzyme inhibition assay; peptide in 5-fold dilution series with enzyme and fluorogenic substrate (Ac-Leu-Gly-Lys(Ac)-AMC or Ac-Leu-Gly-Lys(Tfa)-AMC), HEPES buffer pH 7.4, 30 min, 37 °C, trypsin development; Ki by the Cheng-Prusoff equation
Conditions: both partners purified

KGGKGLG[Asuha″]GGAKRHR [peptide 1a (parent H4K12 Asuha peptide)]
Ki: 5.31 ± 0.03 nM
